# B1: VMI13 peptide GPPPHHRDYHGP (peptide)
# peptide: GPPPHHRDYHGP
# notes: 12-mer with PXP motif from the Ph.D.-12 library; also called ID; NO: 17
# B2: VMI2 peptide WPTNPTTVPVPS (peptide)
# peptide: WPTNPTTVPVPS
# notes: 12-mer with PXP motif from the Ph.D.-12 library; also called ID; NO: 6
# B3: VMI10 peptide YPLPHPMWSMLP (peptide)
# peptide: YPLPHPMWSMLP
# notes: 12-mer with PXP motif from the Ph.D.-12 library; also called ID; NO: 14
# B4: VMI6 peptide WHSQRLSPVPPA (peptide)
# peptide: WHSQRLSPVPPA
# notes: 12-mer with PXP motif from the Ph.D.-12 library; also called ID; NO: 10
# B5: VMI5 peptide SVSVGMKPSPRP (peptide)
# peptide: SVSVGMKPSPRP
# notes: 12-mer with PXP motif; also called ID; NO: 9
# B6: VMI12 peptide TPLPTIRGDTGT (peptide)
# peptide: TPLPTIRGDTGT
# notes: 12-mer with PXP motif from the Ph.D.-12 library; also called ID; NO: 16
# B7: VMI4 peptide SLHWPVSHPPPP (peptide)
# peptide: SLHWPVSHPPPP
# notes: 12-mer with PXP motif from the Ph.D.-12 library; also called ID; NO: 8
# B8: VMI1 peptide SNFASITTPRPH (peptide)
# peptide: SNFASITTPRPH
# notes: 12-mer with PXP motif from the Ph.D.-12 library; also called ID; NO: 5
# B9: VMI9 peptide LPLPAPSFHRTT (peptide)
# peptide: LPLPAPSFHRTT
# notes: 12-mer with PXP motif; also called ID; NO: 13
# B10: VMI16 peptide SPYPSWSTPAGR (peptide)
# peptide: SPYPSWSTPAGR
# notes: 12-mer with PXP motif from the Ph.D.-12 library; also called ID; NO: 20
# B11: VMI14 peptide YPAPIKVLLPNS (peptide)
# peptide: YPAPIKVLLPNS
# notes: 12-mer with PXP motif from the Ph.D.-12 library; also called ID; NO: 18
# B12: VMI15 peptide SPYPMALFPLHN (peptide)
# peptide: SPYPMALFPLHN
# notes: 12-mer with PXP motif from the Ph.D.-12 library; also called ID; NO: 19
# B13: VMI7 peptide SNQGGSPLPRSV (peptide)
# peptide: SNQGGSPLPRSV
# notes: 12-mer with PXP motif; also called VM17; ID; NO: 11
# B14: VMI8 peptide SEPHLPFPVLPH (peptide)
# peptide: SEPHLPFPVLPH
# notes: 12-mer with PXP motif from the Ph.D.-12 library; also called ID; NO: 12
# B15: VMI11 peptide TMTPPPTSVRGT (peptide)
# peptide: TMTPPPTSVRGT
# notes: 12-mer with PXP motif from the Ph.D.-12 library; also called ID; NO: 15
# Molecular target: T1, GST-Vif fusion protein (HIV-1 (HIV-1NL4-3), UniProt P12504 1-192)
# T1 construct: range 1-192; Expressed from pGEX in BL21 E. coli, held on glutathione-agarose beads or coated on ELISA plates; also called purified HIV-1 Vif protein; not shown: glutathione-S-transferase encoded by the pGEX vector
# T1 sequence (P12504 whole entry, the tested form may be a part): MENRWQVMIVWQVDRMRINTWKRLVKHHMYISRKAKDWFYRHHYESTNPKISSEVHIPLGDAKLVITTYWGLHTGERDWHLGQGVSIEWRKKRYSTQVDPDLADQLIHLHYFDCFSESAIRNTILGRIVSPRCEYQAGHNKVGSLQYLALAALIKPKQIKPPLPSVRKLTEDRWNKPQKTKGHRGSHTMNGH
# Assay: phage peptide display, phage ELISA on coated GST-Vif
# Description: One hundred and fifty μl of 100 μg/ml GST and GST-Vif in 0.1 M NaHCO₃ (pH 8.6) were coated on 96 well microtiter plates respectively and incubated at 4° C. overnight. The plates were blocked with blocking buffer (0.1 M NaHCO₃, pH 8.6, 5 mg/ml BSA) for 2 hr at room temperature. […] After washing, HRP-conjugated anti-M13 antibody was added to bind the phages. After washing, the substrate was added and color development was performed. […] OD at 405 nm equal or larger than 0.15 was considered as positive.
row,Binder,binding result
1,B1,binds
2,B2,binds
3,B3,binds
4,B4,binds
5,B5,binds
6,B6,binds
7,B7,binds
8,B8,binds
9,B9,binds
10,B10,binds
11,B11,binds
12,B12,binds
13,B13,binds
14,B14,binds
15,B15,binds
